# Results taken from article PMC4266597, “Ultrastable cellulosome-adhesion complex tightens under load” (Nature Communications, 2014).
# B1: Coh-CBM C2A, C63S fusion protein (R. flavefaciens CohE from ScaE fused to cellulose-binding module 3a (CBM3a) from C. thermocellum), with ybbR tag (domain or fragment, Ruminococcus flavefaciens strain FD1)
# chain: ALTDRGMTYDLDPKDGSSAATKPVLEVTKKVFDTAADAAGQTVTVEFKVSGAEGKYATTGYHIYWDERLEVVATKTGAYAKKGAALEDSSLAKAENNGNGVFVASGADDDFGADGVMWTVELKVPADAKAGDVYPIDVAYQWDPSKGDLFTDNKDSAQGKLMQAYFFTQGIKSSSNPSTDEYLVKANATYADGYIAIKAGEP
# modifications: ybbR tag covalently linked to Coenzyme A on PEG by Sfp phosphopantetheinyl transferase
# notes: cohesin CohE of the ScaE scaffoldin of Ruminococcus flavefaciens strain FD1; The CBM is a marker (fingerprint) and immobilisation domain and is written as a carrier under tags; C2A reverts the earlier A2C in the CBM; also called CohE-CBM C2A C63S; Coh-CBM-ybbR; source: E. coli BL21(DE3) RIPL, purified (Ni-NTA); not shown: CBM3a from C. thermocellum with C2A and C63S, C-terminal, kept
# Legend:
# [1] = biological target: T1, T129C Xyn-XMod-Doc protein (R. flavefaciens XMod-Doc from the CttA scaffoldin fused to the XynT6 xylanase … (Ruminococcus flavefaciens strain FD1, UniProt A0AEF5 565-803, engineered cysteine (T129C in the xylanase) coupled to a 5 kDa NHS-PEG-Mal linker on the cover glass or cantilever)); test: AFM single-molecule force spectroscopy; as a1, but final Doc:Coh rupture immediately following XMod unfolding (35–40% of traces); Bell-Evans fit; conditions: both partners purified
# T1 construct: X-module and dockerin (XMod-Doc) of the CttA scaffoldin of Ruminococcus flavefaciens strain FD1; The Xyn domain is a marker (fingerprint) and immobilisation domain and is written as a carrier under tags; Addgene 60865 holds the plasmid; also called XynT6-XDoc T129C; Xylanase-Xmodule-Dockerin; source: E. coli BL21, purified (Ni-NTA); not shown: XynT6 xylanase from Geobacillus stearothermophilus …
# T1 sequence: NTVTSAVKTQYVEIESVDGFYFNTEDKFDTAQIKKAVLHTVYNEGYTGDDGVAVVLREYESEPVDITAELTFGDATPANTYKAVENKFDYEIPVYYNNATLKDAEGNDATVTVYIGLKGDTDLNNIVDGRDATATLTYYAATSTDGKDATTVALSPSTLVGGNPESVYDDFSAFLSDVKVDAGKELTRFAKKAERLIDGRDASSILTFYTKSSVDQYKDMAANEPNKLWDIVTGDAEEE
# [2] = biological target: T1, T129C Xyn-XMod-Doc protein (R. …); test: AFM single-molecule force spectroscopy; both partners covalently immobilised through PEG linkers; configuration I: Coh-CBM on the cantilever, Xyn-XMod-Doc on the cover glass (configuration II the reverse); Ca-TBS (25 mM TRIS, 72 mM NaCl, 1 mM CaCl2, pH 7.2); pulling speeds 0.2 to 6.4 um/s; final complex rupture with intact XMod; Bell-Evans fit; conditions: both partners purified
binder,measurement,setting,value
B1,koff of the rupture following XMod unfolding,[1],0.00047 s⁻¹
same,rupture force following XMod unfolding,[1],~300 pN
same,koff,[2],7.3e-07 s⁻¹
